# Changes are numbered by the printed parent chain.
# T1: human IL-36α(R12), truncated (human, UniProt Q9UHA7 6-158)
# T1 chain: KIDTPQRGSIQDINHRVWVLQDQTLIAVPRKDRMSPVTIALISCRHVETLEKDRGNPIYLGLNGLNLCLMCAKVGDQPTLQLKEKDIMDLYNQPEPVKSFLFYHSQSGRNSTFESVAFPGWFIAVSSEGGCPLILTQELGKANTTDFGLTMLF
# T2: cynomolgus IL-36α, truncated (cynomolgus macaque (Macaca fascicularis), UniProt Q9UHA7 14-158 (human entry), limits assumed)
# T2 chain: T1 chain with I2S, D3E, T4M, R7P, G8V, T24I, M34V, A40S, V74A
# T3: human IL-36α(Q12), truncated (human, UniProt Q9UHA7 6-158)
# T3 construct: Untagged after removal of the His-SUMO tag
# T3 sequence: T1 chain with R7Q
# T4: cynomolgus IL-36γ, truncated (cynomolgus macaque (Macaca fascicularis), UniProt Q9NZH8 18-167 (human entry), limits assumed)
# T4 chain: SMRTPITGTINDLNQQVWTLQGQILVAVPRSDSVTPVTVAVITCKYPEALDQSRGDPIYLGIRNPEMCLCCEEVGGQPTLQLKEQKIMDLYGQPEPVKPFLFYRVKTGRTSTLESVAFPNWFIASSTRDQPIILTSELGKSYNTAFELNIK
# T5: human IL-36γ, truncated (human, UniProt Q9NZH8 18-169)
# T5 sequence: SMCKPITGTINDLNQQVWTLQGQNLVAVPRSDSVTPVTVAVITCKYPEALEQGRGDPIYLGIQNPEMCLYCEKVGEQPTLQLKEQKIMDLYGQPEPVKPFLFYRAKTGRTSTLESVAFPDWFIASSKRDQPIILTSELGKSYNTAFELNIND
# B1: m/h 144J171G (antibody, human IgG1, lambda, V domains shown)
# VH: EVQLQQSGAELVEPGASVKLSCTASGFNIKDTYINWVKQRPEQGLEWIGRIDPANGYTRYAPKFQGKATITSDTSSNTAYLQLSSLTSEDAAVYSCSTLNYYGSSFFFDFWGQGTTLTVSS
# VL: QAVVTQESALTTSPGETVTLTCRSSTGAVTTSNYANWVQEKPDHLFTGLIGGTNNRAPGVPARFSGSLIGDKAALTITGAQTEDEAIYFCALWYSNHWVFGGGTKLTVLG
# notes: Mouse VH/VL joined to human IgG1 constant and human Ig lambda (IGLC2) constant; also called chimeric mouse/human 144J171G
# B2: 144L133B (antibody, V domains shown)
# VH: EVQLQQSGAELVKPGASVKLSCTASGFNIKDTYMYWVKQRPEQGLEWIGRIDPAIGTTRYDPKFQGKATLTADTSSNTAFLQLSSLTSEDTAVYYCARYDYSGSSFYFDYWGRGTTLTVSS
# VL: QAVVTQESALTTSPGETVTLTCRSSTGAVTTSNYANWVQEKPDHLFTGLIGGTNNRAPGVPARFSGSLIGDKAALTITGAQTEDEAIYFCALWYSNHLVFGGGTKLTVL
# B3: 144D464A LV10re HV10b (antibody, V domains shown)
# VH: QVQLVQSGAEVKKPGASVKVSCKASGFNIKDTYIHWVRQAPGQGLEWIGRIDPAIGTTRYDPKFQGRATITTDTSTSTVYLEFSSLRSEDTAVYYCARLHYFGNNFFFDYWGQGTLVTVSS
# VL: QAVVTQEPSLTVSPGGTVTLTCRSSSGAVTTSNYANWVQEKPGQLFAGLIGGTNDRAPGVPARFSGSLLGGKAALTLSGAQPEDEAIYFCALWFSNHWVFGGGTKLTVL
# notes: Humanized
# B4: 144D464A LV11re HV10b (antibody, V domains shown)
# VH: B3 VH
# VL: B3 VL with L77I
# notes: Humanized
# B5: 144J171G (antibody, V domains shown)
# VH: B1 VH
# VL: B2 VL with L98W
# B6: m/h 144D666C (antibody, human IgG1, lambda, V domains shown)
# VH: EVQLQQSGAELVKPGASVKLTCTASGFNIKDTYIYWVKQRPAQGLEWIGRIDPANAYTKFDPKFQGKATLTADTSSNTAYLQLSSLTSEDTAVYYCTRFHWYGSSFFFDYWGQGTTLTVSS
# VL: B1 VL with N54D, A57P, H97L
# notes: Mouse VH/VL joined to human IgG1 constant and human Ig lambda (IGLC2) constant; also called chimeric mouse/human 144D666C
# B7: m/h 144L249B (antibody, human IgG1, lambda, V domains shown)
# VH: B2 VH with M34I
# VL: B1 VL with W98L
# notes: Mouse VH/VL joined to human IgG1 constant and human Ig lambda (IGLC2) constant; also called chimeric mouse/human 144L249B
# B8: m/h 144L124B (antibody, human IgG1, lambda, V domains shown)
# VH: B2 VH with M34I, I55N, T57Y, L70M, F80Y, D100E, S102Y, G103D, R113Q
# VL: B1 VL with W98L
# notes: Mouse VH/VL joined to human IgG1 constant and human Ig lambda (IGLC2) constant; also called chimeric mouse/human 144L124B
# How the values were obtained:
# [1] = molecular target: T1, human IL-36α(R12), truncated; test: cell-based or functional assay
# [2] = molecular target: T2, cynomolgus IL-36α, truncated; test: cell-based or functional assay
# [3] = molecular target: T3, human IL-36α(Q12), truncated; test: SPR, Biacore T200, antibody on chip, IL-36 as analyte, 1:1 Langmuir fit
# Method: (§1) Antibodies were further tested for their binding to recombinant human or cynomolgus IL36α, IL-36γ in Biacore assays. In order to kinetically analyze the binding activity of the IL-36α and IL-36γ dual antagonist antibodies, the binding activity to human and cynomolgus IL-36α and IL-36γ was measured by surface plasmon resonance method (SPR). All of the following manipulations were carried out using a Biacore T200 (GE Healthcare Life Sciences, Pittsburgh, Pa.).
# (§2) To determine antibody affinity to human and cynomolgus IL36, recombinant antibodies were immobilized on a CM5 sensor chip (cat# BR100012, GE Healthcare Life Sciences, Pittsburgh, Pa.) by an amine coupling chemistry. In particular, the kinetic assay was carried out by immobilizing on the chip approximately 2000 RU of recombinant antibody. Thereafter, recombinant human or cynomolgus IL36 proteins, serially diluted from a high concentration, were allowed to run at a flow rate of 30 μL/min onto the chip for 420 seconds. The dissociation time was 3600 seconds and the binding curves were measured at 25° C. Regeneration was performed with 10 mM glycine pH 1.5 for 30s. Alternatively, the analytes were injected with increasing concentrations in a single cycle, the surface not being regenerated between injections, using a method referred to as “single cycle kinetics.” In particular, either anti-human or anti-mouse Fc specific antibodies were immobilized on a CM5 sensor chip (cat# BR100012, GE Healthcare Life Sciences, Pittsburgh, Pa.) by an amine coupling chemistry. Thereafter, IL-36α and IL-36γ dual antagonist mouse/human chimeric or mouse antibodies were captured at approximately 200 RUs, followed by injections of increasing concentrations of recombinant human and cynomolgus IL36 proteins. The association time was 300 seconds, and the final dissociation time was 1200 seconds. At the end of the analyte injections, the surface was regenerated with either 3M MgCl₂ (anti-human Fc capture antibody) for 30 s or 10 mM glycine-HCl pH 1.7 for 180 s (anti-mouse IgG capture antibody).
# (§3) The raw data were double referenced by subtraction of the signals from a reference flow cell without immobilized ligand and a buffer blank. The sensorgram corresponding to each concentration was obtained.
# [4] = molecular target: T4, cynomolgus IL-36γ, truncated; test: cell-based or functional assay
# human IL-36γ, truncated [5] = molecular target: T5, human IL-36γ, truncated; test: cell-based or functional assay
# human IL-36γ, truncated [6] = molecular target: T5, human IL-36γ, truncated; test: cell-based or functional assay; remark: listed apart in the source
# [7] = molecular target: T1, human IL-36α(R12), truncated; test: cell-based or functional assay
# [8] = molecular target: T4, cynomolgus IL-36γ, truncated; test: SPR, Biacore, 1:1 Langmuir fit; heads of c3 and c4 printed swapped
# Method: (§4) The humanized antibodies obtained in Example 6 were tested for their binding to recombinant human or cynomolgus macaque IL36a and IL-36γ in Biacore assays. The association time was set to 60 seconds, and the final dissociation time was set to 600 seconds. Equilibrium dissociation constant KD (kd/ka) of exemplary antibodies was determined using a 1:1 Langmuir fit model (see Tables 17-18 below).
# human IL-36γ, truncated [9] = molecular target: T5, human IL-36γ, truncated; test: as above
# Method: as §4
# [10] = molecular target: T1, human IL-36α(R12), truncated; test: as above
# Method: as §4
# [11] = molecular target: T2, cynomolgus IL-36α, truncated; test: as above
# Method: as §4
# [12] = molecular target: T4, cynomolgus IL-36γ, truncated; test: SPR, Biacore, 1:1 Langmuir fit
# Method: as §4
# human IL-36γ, truncated [13] = molecular target: T5, human IL-36γ, truncated; test: SPR, Biacore, 1:1 Langmuir fit
# Method: as §4
# [14] = molecular target: T1, human IL-36α(R12), truncated; test: SPR, Biacore, 1:1 Langmuir fit
# Method: as §4
# [15] = molecular target: T2, cynomolgus IL-36α, truncated; test: SPR, Biacore, 1:1 Langmuir fit
# Method: as §4
# human IL-36γ, truncated [16] = molecular target: T5, human IL-36γ, truncated; test: SPR, Biacore T200, antibody on chip, IL-36 as analyte, 1:1 Langmuir fit
# Method: as §1, §2, §3
# [17] = molecular target: T1, human IL-36α(R12), truncated; test: as above
# Method: as §1, §2, §3
binder,measurement,setting,value
B1,"IC50 of IL-8 secretion, HaCaT, 10 nM human IL-36α, FIG. 1B",[1],39.2 nM
same,"IC50 of IL-8 secretion, HaCaT, 10 nM cynomolgus IL-36α, FIG. 2A",[2],19.3 nM
same,Kd,[3],7.01 nM
same,koff,[3],0.00868 s⁻¹
same,kon,[3],1.24e+06 M⁻¹ s⁻¹
same,"IC50 of IL-8 secretion, HaCaT, 10 nM cynomolgus IL-36γ, FIG. 2C",[4],44.4 nM
same,"IC50 of IL-8 secretion, HaCaT, 10 nM human IL-36γ, FIG. 1E","human IL-36γ, truncated [5]",19.4 nM
B2,"IC50 of IL-8 secretion, HaCaT, 10 nM human IL-36α, FIG. 1C",[1],28.7 nM
same,"IC50 of IL-8 secretion, HaCaT, 10 nM cynomolgus IL-36α, FIG. 2B",[2],9.61 nM
same,"IC50 of IL-8 secretion, primary human monocytes, 50 nM human IL-36γ, FIG. 5D","human IL-36γ, truncated [6]",39.6 nM
same,"IC50 of IL-8 secretion, primary human monocytes, 20 nM human IL-36α, FIG. 5A",[7],39.5 nM
same,"IC50 of IL-8 secretion, HaCaT, 10 nM cynomolgus IL-36γ, FIG. 2D",[4],20.6 nM
same,"IC50 of IL-8 secretion, HaCaT, 10 nM human IL-36γ, FIG. 1F","human IL-36γ, truncated [5]",12.9 nM
B3,koff,[8],0.00047 s⁻¹
same,kon,[8],460000 M⁻¹ s⁻¹
same,koff,"human IL-36γ, truncated [9]",0.000425 s⁻¹
same,kon,"human IL-36γ, truncated [9]",353000 M⁻¹ s⁻¹
same,koff,[10],0.000429 s⁻¹
same,kon,[10],229000 M⁻¹ s⁻¹
same,koff,[11],0.000415 s⁻¹
same,kon,[11],372000 M⁻¹ s⁻¹
same,Kd,[12],1.02 nM
same,Kd,"human IL-36γ, truncated [13]",1.2 nM
same,Kd,[14],1.87 nM
same,Kd,[15],1.12 nM
B4,koff,[8],0.000463 s⁻¹
same,kon,[8],446000 M⁻¹ s⁻¹
same,koff,"human IL-36γ, truncated [9]",0.00042 s⁻¹
same,kon,"human IL-36γ, truncated [9]",346000 M⁻¹ s⁻¹
same,koff,[10],0.000422 s⁻¹
same,kon,[10],226000 M⁻¹ s⁻¹
same,koff,[11],0.000407 s⁻¹
same,kon,[11],369000 M⁻¹ s⁻¹
same,Kd,[12],1.04 nM
same,Kd,"human IL-36γ, truncated [13]",1.21 nM
same,Kd,[14],1.86 nM
same,Kd,[15],1.1 nM
B5,"IC50 of IL-8 secretion, HaCaT, 10 nM human IL-36α, FIG. 1B",[1],27 nM
same,"IC50 of IL-8 secretion, HaCaT, 10 nM cynomolgus IL-36α, FIG. 2A",[2],16.8 nM
same,"IC50 of IL-8 secretion, primary human monocytes, 50 nM human IL-36γ, FIG. 5D","human IL-36γ, truncated [6]",113 nM
same,"IC50 of IL-8 secretion, HaCaT, 10 nM cynomolgus IL-36γ, FIG. 2C",[4],82.7 nM
same,"IC50 of IL-8 secretion, HaCaT, 10 nM human IL-36γ, FIG. 1E","human IL-36γ, truncated [5]",19.2 nM
B6,"IC50 of IL-8 secretion, primary human monocytes, 6 nM human IL-36γ, FIG. 5C","human IL-36γ, truncated [6]",9.02 nM
same,"IC50 of IL-8 secretion, primary human monocytes, 50 nM human IL-36γ, FIG. 5D","human IL-36γ, truncated [6]",38.1 nM
same,Kd,"human IL-36γ, truncated [16]",3.06 nM
same,koff,"human IL-36γ, truncated [16]",0.000342 s⁻¹
same,kon,"human IL-36γ, truncated [16]",112000 M⁻¹ s⁻¹
same,Kd,[17],25.1 nM
same,koff,[17],0.00219 s⁻¹
same,kon,[17],87300 M⁻¹ s⁻¹
same,Kd,[3],1.75 nM
same,koff,[3],0.000834 s⁻¹
same,kon,[3],476000 M⁻¹ s⁻¹
B7,"IC50 of IL-8 secretion, primary human monocytes, 40 nM human IL-36α, FIG. 5B",[7],38.3 nM
same,Kd,[3],1.02 nM
same,koff,[3],0.000825 s⁻¹
same,kon,[3],805000 M⁻¹ s⁻¹
B8,"IC50 of IL-8 secretion, primary human monocytes, 40 nM human IL-36α, FIG. 5B",[7],27.5 nM
same,Kd,[3],1.86 nM
same,koff,[3],0.0227 s⁻¹
same,kon,[3],1.22e+07 M⁻¹ s⁻¹
